Source: article PMC11417369, “DNA sequence and chromatin differentiate sequence-specific transcription factor binding in the human malaria parasite Plasmodium falciparum”

T1: AP2-HC D1 (Plasmodium falciparum, UniProt Q8IKR9 1316-1374)
T1 sequence: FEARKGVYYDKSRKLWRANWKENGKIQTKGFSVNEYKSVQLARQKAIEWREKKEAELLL

B1: CACACA_site6643 (dsDNA)
DNA 1: AACATACACATATACACACACACATATATACCTATA
DNA 2: TATAGGTATATATGTGTGTGTGTATATGTGTATGTT
B2: CACACA_site6551 (dsDNA)
DNA 1: ATAAAAAGGAGACACACACACACACGCATATTTATA
DNA 2: TATAAATATGCGTGTGTGTGTGTGTCTCCTTTTTAT
B3: CACACA_site904 (dsDNA)
DNA 1: ATAAAAAGGAAACACACACACACACCCATATATATA
DNA 2: TATATATATGGGTGTGTGTGTGTGTTTCCTTTTTAT
B4: CACACA_site3056 (dsDNA)
DNA 1: AGCTCTTGTCATTTTGCACACACACCCGTATAGGTT
DNA 2: AACCTATACGGGTGTGTGTGCAAAATGACAAGAGCT
B5: CACACA_site903 (dsDNA)
DNA 1: CCATAAAAAGGATACACACACACACCCACATATATA
DNA 2: TATATATGTGGGTGTGTGTGTGTATCCTTTTTATGG
B6: CACACA_site118 (dsDNA)
DNA 1: ATATATATATATTACACACACACAAAAAAAATAAAG
DNA 2: CTTTATTTTTTTTGTGTGTGTGTAATATATATATAT
B7: CACACA_site1447 (dsDNA)
DNA 1: AAAAAAAAAAAACACACACACACACCCACAAAATAT
DNA 2: ATATTTTGTGGGTGTGTGTGTGTGTTTTTTTTTTTT
B8: CACACA_site7288 (dsDNA)
DNA 1: AAAAAAAAAAAAAACACACACACACGCACATATACA
DNA 2: TGTATATGTGCGTGTGTGTGTGTTTTTTTTTTTTTT
B9: CACACA_site8770 (dsDNA)
DNA 1: AACAAACACAGACACACACACACACTAATATGATTA
DNA 2: TAATCATATTAGTGTGTGTGTGTGTCTGTGTTTGTT
B10: CACACA_site372 (dsDNA)
DNA 1: AAGCATACATCAAGCACACACACACCCACACCCACA
DNA 2: TGTGGGTGTGGGTGTGTGTGTGCTTGATGTATGCTT
B11: CACACA_site8718 (dsDNA)
DNA 1: ATAATTTGTGGACACACACACACACCGACATATATA
DNA 2: TATATATGTCGGTGTGTGTGTGTGTCCACAAATTAT
B12: CACACA_site4465 (dsDNA)
DNA 1: AAATAATATAAATACACACACACATATATAAATACA
DNA 2: TGTATTTATATATGTGTGTGTGTATTTATATTATTT
B13: CACACA_site6301 (dsDNA)
DNA 1: CACACGCACAGACACACACACACACGGATATAAATA
DNA 2: TATTTATATCCGTGTGTGTGTGTGTCTGTGCGTGTG
B14: CACACA_site6093 (dsDNA)
DNA 1: TATATAAATGGACACACACACACCTTATAATTATTA
DNA 2: TAATAATTATAAGGTGTGTGTGTGTCCATTTATATA
B15: CACACA_site4189 (dsDNA)
DNA 1: AAAAAAAACGGACACACACACATTCAATATAAAACA
DNA 2: TGTTTTATATTGAATGTGTGTGTGTCCGTTTTTTTT
B16: CACACA_site4435 (dsDNA)
DNA 1: TACACAGACGGACACACACACACACTAGAAAAAAAA
DNA 2: TTTTTTTTCTAGTGTGTGTGTGTGTCCGTCTGTGTA
B17: CACACA_site5152 (dsDNA)
DNA 1: GTATAATATGAACACACACACACACCCAAAAAAAAA
DNA 2: TTTTTTTTTGGGTGTGTGTGTGTGTTCATATTATAC
B18: CACACA_site5428 (dsDNA)
DNA 1: AAAAGATAATTATGCACACACACACCCAGACACAAC
DNA 2: GTTGTGTCTGGGTGTGTGTGTGCATAATTATCTTTT
B19: CACACA_site3306 (dsDNA)
DNA 1: CAACATTTGAAACACACACACATACAAACAAACAAA
DNA 2: TTTGTTTGTTTGTATGTGTGTGTGTTTCAAATGTTG
B20: CACACA_site6714 (dsDNA)
DNA 1: ATAATACACAAGCACACACACACACGGATATTTATA
DNA 2: TATAAATATCCGTGTGTGTGTGTGCTTGTGTATTAT
B21: CACACA_site6387 (dsDNA)
DNA 1: TTAACAAATAGACACACACACACACGCAAAAAAAAA
DNA 2: TTTTTTTTTGCGTGTGTGTGTGTGTCTATTTGTTAA
B22: CACACA_site1505 (dsDNA)
DNA 1: TATATATATATATACACACACACAAAAAAAAAAAAA
DNA 2: TTTTTTTTTTTTTGTGTGTGTGTATATATATATATA
B23: CACACA_site2857 (dsDNA)
DNA 1: AAAAAAAACAGACACACACACATACACATACATACA
DNA 2: TGTATGTATGTGTATGTGTGTGTGTCTGTTTTTTTT
B24: CACACA_site7659 (dsDNA)
DNA 1: AGAATAAAAAGGAACACACACACACGCATATAAATA
DNA 2: TATTTATATGCGTGTGTGTGTGTTCCTTTTTATTCT
B25: CACACA_site6216 (dsDNA)
DNA 1: AAAAAAAAAAGACACACACACACACGGAGATATATA
DNA 2: TATATATCTCCGTGTGTGTGTGTGTCTTTTTTTTTT
B26: CACACA_site8023 (dsDNA)
DNA 1: CCTGAACACATACATACACACACACTAATAAAAAAA
DNA 2: TTTTTTTATTAGTGTGTGTGTATGTATGTGTTCAGG
B27: CACACA_site8824 (dsDNA)
DNA 1: GATAATTATGGACACACACACACACCCACAACTAAA
DNA 2: TTTAGTTGTGGGTGTGTGTGTGTGTCCATAATTATC
B28: CACACA_site1585 (dsDNA)
DNA 1: AAAATAAAAAAAAACACACACATACAAGCATATATA
DNA 2: TATATATGCTTGTATGTGTGTGTTTTTTTTTATTTT
B29: CACACA_site4398 (dsDNA)
DNA 1: AGTATACTCAAACACACACACACAAAAAAAAAAAAA
DNA 2: TTTTTTTTTTTTTGTGTGTGTGTGTTTGAGTATACT
B30: CACACA_site8849 (dsDNA)
DNA 1: AAAAAAAAAAAACACACACACACACCGATACATACA
DNA 2: TGTATGTATCGGTGTGTGTGTGTGTTTTTTTTTTTT
B31: CACACA_site2860 (dsDNA)
DNA 1: AAAAAAAAAAAAAACACACACACACCCATACACATA
DNA 2: TATGTGTATGGGTGTGTGTGTGTTTTTTTTTTTTTT
B32: CACACA_site4551 (dsDNA)
DNA 1: AAAAAAAAAAAACACACACACACACTAGTACATACA
DNA 2: TGTATGTACTAGTGTGTGTGTGTGTTTTTTTTTTTT
B33: CACACA_site482 (dsDNA)
DNA 1: GAATAATCCAAACACACACACACACCCGAATAAATA
DNA 2: TATTTATTCGGGTGTGTGTGTGTGTTTGGATTATTC
B34: CACACA_site6373 (dsDNA)
DNA 1: AACATACATAGACACACACACACACGCACACGCACA
DNA 2: TGTGCGTGTGCGTGTGTGTGTGTGTCTATGTATGTT
B35: CACACA_site6495 (dsDNA)
DNA 1: TTAAACTTGAGACACACACACACACGGATATAAAAA
DNA 2: TTTTTATATCCGTGTGTGTGTGTGTCTCAAGTTTAA
B36: CACACA_site758 (dsDNA)
DNA 1: TTAAACTTGAAACACACACACACACCCATATAAAAA
DNA 2: TTTTTATATGGGTGTGTGTGTGTGTTTCAAGTTTAA
B37: CACACA_site4909 (dsDNA)
DNA 1: AAAAAATCAAAACACACACACACACTAGAAAAAAAA
DNA 2: TTTTTTTTCTAGTGTGTGTGTGTGTTTTGATTTTTT
B38: CACACA_site1444 (dsDNA)
DNA 1: AAAAAATCAAAACACACACACACACCCAAAAAAAAA
DNA 2: TTTTTTTTTGGGTGTGTGTGTGTGTTTTGATTTTTT
B39: CACACA_site8113 (dsDNA)
DNA 1: CACGCATACAGACACACACACACACCGATATATATA
DNA 2: TATATATATCGGTGTGTGTGTGTGTCTGTATGCGTG
B40: CACACA_site2012 (dsDNA)
DNA 1: AATATGAACAGACACACACACACAAAAAAAAAAAAA
DNA 2: TTTTTTTTTTTTTGTGTGTGTGTGTCTGTTCATATT
B41: CACACA_site5780 (dsDNA)
DNA 1: ATAAATTAAAAACACACACACATCTGGATACCCCTA
DNA 2: TAGGGGTATCCAGATGTGTGTGTGTTTTTAATTTAT
B42: CACACA_site4441 (dsDNA)
DNA 1: CAAATACCCGGACACACACACACAAAAAAAAAAAAA
DNA 2: TTTTTTTTTTTTTGTGTGTGTGTGTCCGGGTATTTG
B43: CACACA_site3497 (dsDNA)
DNA 1: AGCAAATACAAACACACACACACATATACATATATA
DNA 2: TATATATGTATATGTGTGTGTGTGTTTGTATTTGCT
B44: CACACA_site6991 (dsDNA)
DNA 1: ACAGAAAAAAGACACACACACATAATATACATACAT
DNA 2: ATGTATGTATATTATGTGTGTGTGTCTTTTTTCTGT

target: T1, AP2-HC D1; assay: gcPBM; about 25 ug protein; PBS, 1% milk, 0.2 mg/ml BSA, salmon testes DNA, 0.03% Triton X-100; details: tags: N-terminal GST (pGEX-4T-1), kept; label: surface-attached array probe

Binder	binding signal
B1	11.9 ln median PBM intensity, better of two orientations
B2	12 ln median PBM intensity, better of two orientations
B3	11.9 ln median PBM intensity, better of two orientations
B4	11 ln median PBM intensity, better of two orientations
B5	11.9 ln median PBM intensity, better of two orientations
B6	11.7 ln median PBM intensity, better of two orientations
B7	11.7 ln median PBM intensity, better of two orientations
B8	11.9 ln median PBM intensity, better of two orientations
B9	11.7 ln median PBM intensity, better of two orientations
B10	11.9 ln median PBM intensity, better of two orientations
B11	11.8 ln median PBM intensity, better of two orientations
B12	11.7 ln median PBM intensity, better of two orientations
B13	11.7 ln median PBM intensity, better of two orientations
B14	11.9 ln median PBM intensity, better of two orientations
B15	11.8 ln median PBM intensity, better of two orientations
B16	11.9 ln median PBM intensity, better of two orientations
B17	11.9 ln median PBM intensity, better of two orientations
B18	11.7 ln median PBM intensity, better of two orientations
B19	11.8 ln median PBM intensity, better of two orientations
B20	11.8 ln median PBM intensity, better of two orientations
B21	12 ln median PBM intensity, better of two orientations
B22	11.3 ln median PBM intensity, better of two orientations

Binder	binding signal
B23	11.8 ln median PBM intensity, better of two orientations
B24	11.7 ln median PBM intensity, better of two orientations
B25	11.7 ln median PBM intensity, better of two orientations
B26	11.3 ln median PBM intensity, better of two orientations
B27	12 ln median PBM intensity, better of two orientations
B28	11.2 ln median PBM intensity, better of two orientations
B29	11.8 ln median PBM intensity, better of two orientations
B30	12 ln median PBM intensity, better of two orientations
B31	11.7 ln median PBM intensity, better of two orientations
B32	11.8 ln median PBM intensity, better of two orientations
B33	11.7 ln median PBM intensity, better of two orientations
B34	11 ln median PBM intensity, better of two orientations
B35	11.8 ln median PBM intensity, better of two orientations
B36	11.7 ln median PBM intensity, better of two orientations
B37	11.8 ln median PBM intensity, better of two orientations
B38	11.8 ln median PBM intensity, better of two orientations
B39	11.1 ln median PBM intensity, better of two orientations
B40	11.8 ln median PBM intensity, better of two orientations
B41	11.5 ln median PBM intensity, better of two orientations
B42	11.9 ln median PBM intensity, better of two orientations
B43	11.7 ln median PBM intensity, better of two orientations
B44	11.8 ln median PBM intensity, better of two orientations
